# Experimental data as given in the RNAGym collection of RNA variant scans (doi:10.1073/pnas.2313332121).
# Fewer inactive variants are shown than the library holds.
# B1: TPR 5TU (parent)
# chain: GGAUCUUCUCGAUCUAACAAAAAAGACAAAUCUGCCACAAAGCUUGAGAGCAUCUUCGGAUGCAGAGGCGGCAGCCUUCGGUGGCGCGAUAGCGCCAACGUUCUCAACUAUGACACGCAAAACGCGUGCUCCGUUGAAUGGAGUUUAUCAUG
# Variants of: B1
# Test: polymerase ribozyme fitness, log enrichment relative to wild type (log ratio); higher = more active; in vitro selection for triplet polymerase activity
# Method in brief: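 After PCR construction and transcription, each subunit's mutant library from a heterodimeric triplet polymerase ribozyme was annealed with a biotinylated primer, the partner subunit and triplets. Incubation was frozen, at −7 °C, and extended constructs were gel-excised, bound to streptavidin beads and amplified by RT-PCR, in one selection round done in triplicate. Fitness is the logarithm of a genotype's enrichment divided by that of the wild type, from inverse-variance-weighted replicate averages of Illumina-sequenced inputs and outputs. The base of the logarithm is 2, and genotypes needed ≥10 input reads and ≥1 read per output.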
row,Variant,polymerase ribozyme fitness (log ratio)
1,C27U A47G C93A,-4.19
2,C27U C54U G58A A106G,-0.532
3,A28C A39C C54G U61A C99U,≤ -4.2
4,A30C C87G U101C,≤ -4.2
5,C27U A64G C75G G86A C105U,-4.19
6,A30C A52C G83U G84C U135A G141C,≤ -4.2
7,A28U G42U G59C A64C U78C C87A,≤ -4.2
8,C27U C72U G88A G94A G152A,-4.19
9,C27A G50U C57U A60C C116G U146G A147C,≤ -4.2
10,A29G A41C A47G C85G G92U U104G A137G G141U,≤ -4.2
11,A26U U31A G86U A147C,≤ -4.2
12,A29C A52C G88U,≤ -4.2
13,C27A A60U G133A U135C A150U,≤ -4.2
14,C27U A28U C76U U78G C93G A119G,≤ -4.2
15,A28G G84U,-4.02
16,C27U A28U U53G C93A,≤ -4.2
17,A29U G71C C93U U109G G124C,≤ -4.2
18,A30C C75G U78G C95G,≤ -4.2
19,C27U A39U U53A C93U,≤ -4.2
20,A29U A39C A40U U45G U77G,≤ -4.2
21,C27U G81U C85U,-2.15

row,Variant,polymerase ribozyme fitness (log ratio)
1,C27A C87U,-3.91
2,A28U A147C U151C G152C,≤ -4.2
3,A29C A49C U61A A138C,≤ -4.2
4,A30C C95G C108U C132G G133U,≤ -4.2
5,A29U A89U G94A C116G G141A,≤ -4.2
6,C27G U55A A73G U77A C87A A142U,≤ -4.2
7,C27U A40C U55A C114U U139G,-3.95
8,A29U U45A G94C C105A A113U U130G U135G,≤ -4.2
9,A26U G86U,-3.84
10,C27U C63U C76U G81C U101G U146G,-3.39
11,C27G G80A G81C,-4.11
12,A28U G83A C116U U145A,≤ -4.2
13,C27G G84A G136U,≤ -4.2
14,C27U C75U,-1.25
15,C27U C35U U53A U56G C57A C93A A113C A122G U146A C149G,≤ -4.2
16,A29U G46U G70U U90G C95U A115G G117U A120U,≤ -4.2
17,A30C U53A U78G G84U A137G,≤ -4.2
18,A29U U33A U102G A113U U144C,≤ -4.2
19,A28G C38U U61A G67U C85G A98G,-3.98
20,A30C C36G U77G C116U C125U G133C,≤ -4.2
21,A28C C57U G84A C96U G124U,≤ -4.2

row,Variant,polymerase ribozyme fitness (log ratio)
1,C27U U55A C99G A138G,≤ -4.2
2,A29C A37C A64G C87A C95G U146G,≤ -4.2
3,A29G U56A U77C,≤ -4.2
4,A28G A106G U134G,≤ -4.2
5,C27A U55A C76U A98G,≤ -4.2
6,A29G C43A G48C C93G G126C,≤ -4.2
7,A28U G48C C54U G74U U77A G86U A98U C103G,≤ -4.2
8,A29G A30U C43U G50A G67U C79G G88U C99A G141A,≤ -4.2
9,C27U U44A G46A C54A C116G A147U,≤ -4.2
10,C27A A119U G133C A137G G140U U144G,≤ -4.2
11,A28U G59U G74U C85G A113U C114A U127A,≤ -4.2
12,A28C A52G G88C A89G U101C C105G,≤ -4.2
13,A29U U104C,-4.14
14,A28U G88A A107G A142C U151A,≤ -4.2
15,A29U A91U,≤ -4.2
16,A28C U134A,≤ -4.2
17,A28U C36G C85G G94A C131G,≤ -4.2
18,C27A G58A G84A,≤ -4.2
19,A29U C114U A137G G141A U148C,≤ -4.2
20,A28G A29U A89C G141C,≤ -4.2
21,C27A U56A,-3.7

row,Variant,polymerase ribozyme fitness (log ratio)
1,A28G C38A C54G G88C C103A,≤ -4.2
2,A28G G42C C43G U56C C85G G92A G124U A150U,≤ -4.2
3,C27U A52G G92A C96U G133A,≤ -4.2
4,C27A G50A C54U C95A,≤ -4.2
5,A30C A41C C57A G62C G92A C131G,≤ -4.2
6,A28C G84A C87G C96G A121U,≤ -4.2
7,A28C C32G C63U,≤ -4.2
8,A30C G92A G100C,≤ -4.2
9,A28C A39U G48C G70A G84C C93G G140U,≤ -4.2
10,C27U C85A A91U G143A,≤ -4.2
11,A29U G141C,-3.49
12,A28U U45A C57U A60G C75G G94A G126C,≤ -4.2
13,C27U C32A A39U C75U A91C A121C G126C,≤ -4.2
14,A28U C95A,-3.41
15,A29U G126A,≤ -4.2
16,C27U C76U G83A,-1.55
17,C27G A28U G50U C87G G140C,-3.94
18,A29C U55A C75A C85U G141C,≤ -4.2
19,A30C U31G U82A G92C C103A U134G,≤ -4.2
20,A30C C35U G88U C116G,-3.99
21,A29C U56A G80U A121G,≤ -4.2
